Earlier results in patent publication US20030103959A1, “Methods of providing neuroprotection and/or neurorestoration via the neural activin type IIB receptor” (priority 2001, published 2003).

Test system: quinolinic acid (QA) rat lesion model of Huntington's Disease
Conditions: Hughes et al. 1999

B1: recombinant human (rh) activin-A: member of the TGF-β superfamily; 28 kDa disulphide-linked homodimer of two βA subunits (protein, UniProt P08476 311-426, looked up)
Inhibin beta A chain: GLECDGKVNICCKKQFFVSFKDIGWNDWIIAPSGYHANYCEGECPSHIAGTSGSSLSFHSTVINHYRMRGHSPFANLKSCCVPTKLRPMSMLYYDDGQNIIKKDIQNMIVEECGCS
In the case of B1, the “neurotrophic effects after administration” value is listed as “potent neurotrophic effects”.
